# B1: Zinc finger protein RFP (Homo sapiens), P14373 (parent)
# chain: MASGSVAECLQQETTCPVCLQYFAEPMMLDCGHNICCACLARCWGTAETNVSCPQCRETFPQRHMRPNRHLANVTQLVKQLRTERPSGPGGEMGVCEKHREPLKLYCEEDQMPICVVCDRSREHRGHSVLPLEEAVEGFKEQIQNQLDHLKRVKDLKKRRRAQGEQARAELLSLTQMEREKIVWEFEQLYHSLKEHEYRLLARLEELDLAIYNSINGAITQFSCNISHLSSLIAQLEEKQQQPTRELLQDIGDTLSRAERIRIPEPWITPPDLQEKIHIFAQKCLFLTESLKQFTEKMQSDMEKIQELREAQLYSVDVTLDPDTAYPSLILSDNLRQVRYSYLQQDLPDNPERFNLFPCVLGSPCFIAGRHYWEVEVGDKAKWTIGVCEDSVCRKGGVTSAPQNGFWAVSLWYGKEYWALTSPMTALPLRTPLQRVGIFLDYDAGEVSFYNVTERCHTFTFSHATFCGPVRPYFSLSYSGGKSAAPLIICPMSGIDGFSGHVGNHGHSMETSP
# Variants of: B1
# Settings: with magl2_human MAGEL2, Q9UJ55
# magl2_human MAGEL2, Q9UJ55, sequence (Q9UJ55 whole entry): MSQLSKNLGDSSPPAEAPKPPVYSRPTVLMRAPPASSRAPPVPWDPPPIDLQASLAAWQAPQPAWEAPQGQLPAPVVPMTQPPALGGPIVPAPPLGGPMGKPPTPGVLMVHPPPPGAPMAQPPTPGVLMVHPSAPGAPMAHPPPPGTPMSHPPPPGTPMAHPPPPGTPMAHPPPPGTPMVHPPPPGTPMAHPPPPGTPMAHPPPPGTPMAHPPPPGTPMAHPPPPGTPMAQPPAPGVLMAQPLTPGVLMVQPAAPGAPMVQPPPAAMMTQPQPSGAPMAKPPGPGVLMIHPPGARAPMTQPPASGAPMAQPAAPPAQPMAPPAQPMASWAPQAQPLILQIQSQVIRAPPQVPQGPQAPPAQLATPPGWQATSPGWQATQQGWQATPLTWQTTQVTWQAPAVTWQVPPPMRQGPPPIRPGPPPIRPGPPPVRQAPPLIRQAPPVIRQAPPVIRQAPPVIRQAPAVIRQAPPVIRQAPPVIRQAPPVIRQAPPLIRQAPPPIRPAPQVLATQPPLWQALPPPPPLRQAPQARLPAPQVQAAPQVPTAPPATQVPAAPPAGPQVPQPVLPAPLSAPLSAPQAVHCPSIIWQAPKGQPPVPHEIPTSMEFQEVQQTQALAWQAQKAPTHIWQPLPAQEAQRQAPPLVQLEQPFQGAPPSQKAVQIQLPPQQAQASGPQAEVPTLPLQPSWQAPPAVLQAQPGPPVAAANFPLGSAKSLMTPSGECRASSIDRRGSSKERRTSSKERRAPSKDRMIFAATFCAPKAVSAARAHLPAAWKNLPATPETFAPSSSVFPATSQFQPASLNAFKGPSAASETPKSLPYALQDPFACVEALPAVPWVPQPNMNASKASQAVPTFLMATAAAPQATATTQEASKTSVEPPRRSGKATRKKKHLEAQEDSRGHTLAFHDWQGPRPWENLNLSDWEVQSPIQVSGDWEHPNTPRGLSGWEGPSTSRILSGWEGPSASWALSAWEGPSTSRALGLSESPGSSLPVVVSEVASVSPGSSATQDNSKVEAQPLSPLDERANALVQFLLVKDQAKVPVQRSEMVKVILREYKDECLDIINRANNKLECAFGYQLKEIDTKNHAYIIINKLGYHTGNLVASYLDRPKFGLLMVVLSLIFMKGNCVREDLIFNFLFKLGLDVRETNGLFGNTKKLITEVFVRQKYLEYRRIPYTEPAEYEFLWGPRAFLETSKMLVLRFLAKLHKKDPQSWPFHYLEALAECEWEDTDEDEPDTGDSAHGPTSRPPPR
row,Variant,effect of a mutation on the interaction
1,K304R;K380R;K382R,with no effect
